Measurements: US20200123515, “TGFBetaR2 ENDONUCLEASE VARIANTS, COMPOSITIONS, AND METHODS OF USE” (bluebird bio, Inc., published 2020)

Legend:
[1] = biological target: T1, TGFβR2.B3.F8 I-OnuI HE variant (HEK 293T expression) (Artificial Sequence (parent Ophiostoma …)); experiment: cell_activity; rate of generating iRFP-positive cells; chromosomal reporter in HEK 293T
T1 chain: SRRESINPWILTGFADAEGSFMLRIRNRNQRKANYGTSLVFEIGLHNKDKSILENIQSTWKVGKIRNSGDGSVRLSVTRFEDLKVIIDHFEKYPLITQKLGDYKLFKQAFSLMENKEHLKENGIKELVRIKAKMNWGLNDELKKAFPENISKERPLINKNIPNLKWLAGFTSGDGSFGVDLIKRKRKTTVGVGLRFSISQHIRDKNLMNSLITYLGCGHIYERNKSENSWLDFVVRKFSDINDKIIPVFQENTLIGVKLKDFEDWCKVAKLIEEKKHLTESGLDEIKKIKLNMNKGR
Description: The activity of reprogrammed I-OnuI HEs that target exon 6 of the TGFβR2 gene was measured using a chromosomally integrated fluorescent reporter system (Certo et. al., 2011). Fully reprogrammed I-OnuI HEs that bind and cleave the TGFβR2 target sequence (SEQ ID NO: 11) were cloned into mammalian expression plasmids and then individually transfected into a HEK 293T […] cell line that contained the TGFβR2 target sequence upstream of an out-of-frame gene encoding the fluorescent iRFP protein. Cleavage of the embedded target site by the HE and the accumulation of indels following DNA repair via the non-homologous end joining (NHEJ) pathway results in approximately one out of three repaired loci placing the fluorescent reporter gene back “in-frame”. The percentage of iRFP fluorescing HEK 293T cells is therefore used a readout of endonuclease activity at the chromosomally embedded target sequence. […] FIG. 3 (top graph).
A secondary I-OnuI variant library was next generated by performing random mutagenesis on the TGFβR2.B3 HE variant (e.g., SEQ ID NO: 6). Display-based flow sorting was performed under more stringent cleavage conditions in an effort to isolate variants with improved catalytic efficiency. […] FIG. 3 (bottom graph).

[2] = biological target: T2, TGFβR2.B3.F8 I-OnuI HE variant (yeast surface display) (Artificial Sequence (parent Ophiostoma …)); experiment: flow; sub-nanomolar affinity stated; yeast surface affinity titration, exact value only in figure; settings: tags: yeast surface display
T2 chain: T1 chain

B1: TGFβR2 exon 6 I-OnuI HE variant target site (dsDNA)
DNA 1: CGACCAGAAATTCCCAGCTTCT
DNA 2: AGAAGCTGGGAATTTCTGGTCG
B1 was tested, and the activity [1] was about 4 fold vs TGFβR2.B3 and the Kd [2] was under 1 nM.
